Measured values reported in patent publication US10787678 (UNIVERSITY OF GEORGIA RESEARCH FOUNDATION, dated 2020).

Columns and labels:
Cry3Bb toxin [1] = target: T1, Cry3Bb toxin (Bacillus thuringiensis, UniProt Q06117 64-652); experiment: cell-based or functional assay
Cry3Bb toxin [2] = target: T1, Cry3Bb toxin; experiment: ELISA, biotinylated peptide titrated on plate-coated activated Cry3Bb; one-site saturation binding fit of specific binding

T1 sequence (Q06117 64-652 limits assumed): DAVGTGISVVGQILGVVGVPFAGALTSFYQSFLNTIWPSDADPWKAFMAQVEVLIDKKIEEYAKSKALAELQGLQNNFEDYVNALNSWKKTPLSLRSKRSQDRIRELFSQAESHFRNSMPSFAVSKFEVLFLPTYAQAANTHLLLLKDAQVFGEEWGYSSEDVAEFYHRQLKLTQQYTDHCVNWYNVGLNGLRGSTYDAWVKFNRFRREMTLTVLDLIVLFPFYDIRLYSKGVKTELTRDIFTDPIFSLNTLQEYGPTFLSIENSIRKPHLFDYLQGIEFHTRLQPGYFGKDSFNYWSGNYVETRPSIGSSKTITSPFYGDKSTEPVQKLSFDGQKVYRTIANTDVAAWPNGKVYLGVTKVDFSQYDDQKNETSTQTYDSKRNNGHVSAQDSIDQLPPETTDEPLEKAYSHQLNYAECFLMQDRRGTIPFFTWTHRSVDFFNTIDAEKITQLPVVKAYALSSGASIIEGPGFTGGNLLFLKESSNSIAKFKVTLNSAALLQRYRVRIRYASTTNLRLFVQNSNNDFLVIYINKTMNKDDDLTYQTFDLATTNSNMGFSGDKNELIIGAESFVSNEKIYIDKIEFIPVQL

B1: AdCad1-MPED peptide (peptide)
chain: DSDSYITVLPLVDAVSTAKLVTIHATDPDDTSEVQYQIESCIGSGDLLQKLCGNNPFEINKISGEISAQIQSANLSKWDGHFNLTVTAADEAGFDDKNHTDEAVVTLYLVTKLHLVAFDFENSLEQVQNKSNEIKTILDEQFAETSDGGTPYVATVQGANAKSDEITTATVYFLNLKQQKPVNKDNIYSYCTNTQYFGSMRSAFLAEGLSLMSFDGTSNETEDMEEILT
modifications: biotinylated with sulfo-NHS-photocleavable biotin (50-fold molar excess) in the binding assay
notes: Expressed in E. coli from pET-30a (Nde I / Xho I), purified from inclusion bodies on a Ni-chelating column; In the bioassays it was used unlabelled, as inclusion bodies; also called biotinylated-AdCad1-MPED; not shown: C-terminal His-tag from the pET-30a vector
With B1 the “larval mortality with Cry3Bb (10 ug/cm^2) plus peptide at a 1:10 mass ratio, against 10% with toxin alone” value (Cry3Bb toxin [1]) was greater than 25% and the Kd (Cry3Bb toxin [2]) was 40.6 nM.

B2: AdCad1-CR9 peptide (peptide)
chain: TEMIYKLTVEASIKEQTQINGKPTFARCEFNVGFFDKDNTDPIFKNKHEDTHEMAEEDDTLFYVLIENATYAKEDVPDDLSTFYLLAEGERDIFDVDKFTGKVTLNKPLDYETKKSHSLTIQSSNSDKLKLNASEETKLHLTIIVTDINDHAPVM
modifications: biotinylated with sulfo-NHS-photocleavable biotin (50-fold molar excess) in the binding assay
notes: Expressed in E. coli from pET-30a (Nde I / Xho I), purified from inclusion bodies on a Ni-chelating column; In the bioassays it was used unlabelled, as inclusion bodies; also called biotinylated-AdCad1-CR9; not shown: C-terminal His-tag from the pET-30a vector
For B2, the “larval mortality with Cry3Bb (10 ug/cm^2) plus peptide at a 1:10 mass ratio, against 10% with toxin alone” value (Cry3Bb toxin [1]) was greater than 25% and the Kd (Cry3Bb toxin [2]) was 23.2 nM.
